Reference: US20240270826A1 (NATIONAL RESEARCH COUNCIL OF CANADA, published 2024)

What was measured:
[1] = molecular target: T1, ACE2-Fc (human ACE2 aa18-740 fused to human IgG1 Fc) (human, UniProt Q9BYF1 18-740); test: ELISA
T1 construct: range 18-740

[2] = molecular target: T2, SARS-CoV-2 S2 (aa686-1208) (Wuhan) (SARS-CoV-2 Wuhan, UniProt P0DTC2 686-1208); test: SPR, antigen on chip
T2 construct: NRC; FLAG, 6xHis tags

[3] = molecular target: T3, SARS-CoV-2 spike trimer S (Wuhan, SmT1) (SARS-CoV-2 Wuhan); test: SPR, antigen on chip
T3 construct: extracellular domain

[4] = molecular target: T4, SARS-CoV-2 S1 (aa16-685) (Wuhan) (SARS-CoV-2 Wuhan, UniProt P0DTC2 16-685); test: SPR, antigen on chip
T4 construct: NRC; FLAG, 6xHis tags

[5] = molecular target: SARS-CoV-2 S1-RBD fused to human Fc (S1-RBD-Fc) (SARS-CoV-2 Wuhan; human); test: SPR, antigen on chip
[6] = molecular target: T3, SARS-CoV-2 spike trimer S (Wuhan, SmT1); test: flow cytometry, inhibition of S binding to ACE2 on Vero E6 cells, monomeric VHH
RBD (aa319-541) (Wuhan) [7] = molecular target: T5, RBD (aa319-541) (Wuhan) (SARS-CoV-2 (Wuhan), UniProt P0DTC2 319-541); test: SPR, RBD over captured VHH-Fc (per Table 11 footnote)
[8] = molecular target: T6, SARS-CoV-2 S on CHO-S cells (SARS-CoV-2, UniProt P0DTC2 14-1273); test: flow cytometry, CHO-S cells
T6 construct: whole, on cells

RBD_SARS-CoV (aa306-527) = RBD_SARS-CoV (aa306-527) (SARS-CoV, UniProt P59594 306-527); test: SPR, RBD over captured VHH-Fc
RBD (aa319-541) (Wuhan) [9] = molecular target: T5, RBD (aa319-541) (Wuhan); test: SPR, RBD over captured VHH-Fc
[10] = molecular target: SARS-CoV-2 S1-NTD (aa16-305) (SARS-CoV-2 Wuhan, UniProt P0DTC2 16-305); test: ELISA
[11] = molecular target: T2, SARS-CoV-2 S2 (aa686-1208) (Wuhan); test: ELISA
SARS-CoV spike (S) = SARS-CoV spike (S) (SARS-CoV, UniProt P59594 14-1195); test: ELISA

T1 sequence (Q9BYF1 18-740 limits assumed): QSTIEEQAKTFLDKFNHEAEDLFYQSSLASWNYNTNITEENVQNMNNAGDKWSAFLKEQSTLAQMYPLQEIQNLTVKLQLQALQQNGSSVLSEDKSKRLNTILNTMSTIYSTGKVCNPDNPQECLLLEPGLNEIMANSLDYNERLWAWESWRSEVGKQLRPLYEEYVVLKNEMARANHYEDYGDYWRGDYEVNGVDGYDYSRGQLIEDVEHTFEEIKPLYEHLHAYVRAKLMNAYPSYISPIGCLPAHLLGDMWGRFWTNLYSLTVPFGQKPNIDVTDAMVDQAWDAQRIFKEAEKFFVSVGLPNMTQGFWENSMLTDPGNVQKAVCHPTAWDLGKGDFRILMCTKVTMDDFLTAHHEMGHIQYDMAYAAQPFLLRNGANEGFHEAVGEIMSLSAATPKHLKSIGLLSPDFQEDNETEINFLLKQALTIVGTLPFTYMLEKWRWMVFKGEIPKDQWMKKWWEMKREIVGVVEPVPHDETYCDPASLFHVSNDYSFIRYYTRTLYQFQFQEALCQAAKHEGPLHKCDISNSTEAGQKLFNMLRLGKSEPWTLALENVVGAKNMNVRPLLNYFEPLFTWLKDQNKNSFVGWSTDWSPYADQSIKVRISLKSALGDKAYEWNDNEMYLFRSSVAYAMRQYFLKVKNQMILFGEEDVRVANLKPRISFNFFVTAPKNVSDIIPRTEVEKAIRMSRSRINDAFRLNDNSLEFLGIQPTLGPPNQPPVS

B1: Human CoV-HKU1 S (other)
chain: AVIGDFNCTNSFINDYNKTIPRISEDVVDVSLGLGTYYVLNRVYLNTTLLFTGYFPKSGANFRDLALKGSIYLSTLWYKPPFLSDFNNGIFSKVKNTKLYVNNTLYSEFSTIVIGSVFVNTSYTIVVQPHNGILEITACQYTMCEYPHTVCKSKGSIRNESWHIDSSEPLCLFKKNFTYNVSADWLYFHFYQERGVFYAYYADVGMPTTFLFSLYLGTILSHYYVMPLTCNAISSNTDNETLEYWVTPLSRRQYLLNFDEHGVITNAVDCSSSFLSEIQCKTQSFAPNTGVYDLSGFTVKPVATVYRRIPNLPDCDIDNWLNNVSVPSPLNWERRIFSNCNFNLSTLLRLVHVDSFSCNNLDKSKIFGSCFNSITVDKFAIPNRRRDDLQLGSSGFLQSSNYKIDISSSSCQLYYSLPLVNVTINNFNPSSWNRRYGFGSFNLSSYDVVYSDHCFSVNSDFCPCADPSVVNSCAKSKPPSAICPAGTKYRHCDLDTTLYVKNWCRCSCLPDPISTYSPNTCPQKKVVVGIGEHCPGLGINEEKCGTQLNHSSCFCSPDAFLGWSFDSCISNNRCNIFSNFIFNGINSGTTCSNDLLYSNTEISTGVCVNYDLYGITGQGIFKEVSAAYYNNWQNLLYDSNGNIIGFKDFLTNKTYTILPCYSGRVSAAFYQNSSSPALLYRNLKCSYVLNNISFISQPFYFDSYLGCVLNAVNLTSYSVSSCDLRMGSGFCIDYALPSSRRKRRGISSPYRFVTFEPFNVSFVNDSVETVGGLFEIQIPTNFTIAGHEEFIQTSSPKVTIDCSAFVCSNYAACHDLLSEYGTFCDNINSILNEVNDLLDITQLQVANALMQGVTLSSNLNTNLHSDVDNIDFKSLLGCLGSQCGSSSRSLLEDLLFNKVKLSDVGFVEAYNNCTGGSEIRDLLCVQSFNGIKVLPPILSETQISGYTTAATVAAMFPPWSAAAGVPFSLNVQYRINGLGVTMDVLNKNQKLIANAFNKALLSIQNGFTATNSALAKIQSVVNANAQALNSLLQQLFNKFGAISSSLQEILSRLDNLEAQVQIDRLINGRLTALNAYVSQQLSDITLIKAGASRAIEKVNECVKSQSPRINFCGNGNHILSLVQNAPYGLLFIHFSYKPTSFKTVLVSPGLCLSGDRGIAPKQGYFIKQNDSWMFTGSSYYYPEPISDKNVVFMNSCSVNFTKAPFIYLNNSIPNLSDFEAELSLWFKNHTSIAPNLTFNSHINATFLDLYYEMNVIQESIKSLNSSFINLKEIGTYEMYVKWP
notes: Sino Biological; 6xHis
binding result [1]: no binding (tested: 13 nM)

B2: NRCoV2-17 VHH (VHH)
VHH: EVQLQQSGGGLVQTGGSLRLSCAAAGSPFSQLAMSWYRQISGKERAWVASISPTGNRSYSKIAKGRFTISRDNAKNTVTLQMTSLKPEDTAAYICQAANVNGGDYWGQGTQVTVSS
binding result [2]: no binding
Kd [3]: 0.149 nM
koff [3]: 9.79e-05 s⁻¹
kon [3]: 659000 M⁻¹ s⁻¹
Kd [4]: 0.153 nM
koff [4]: 9.66e-05 s⁻¹
kon [4]: 629000 M⁻¹ s⁻¹
Kd [5]: 0.395 nM
koff [5]: 0.000224 s⁻¹
kon [5]: 567000 M⁻¹ s⁻¹
IC50 [6]: 9.4 nM

B3: NRCoV2-12 VHH-Fc (Fc fusion)
chain: EVQLQQSGGGLVQAGGSLRLSCAASGRTFRNYVMGWFRQAPQAPGKDHEFVAAISWGGTEIYYADSVKGRFTISRDNAKNTVYLQMNSLKPEDTAVYYCAADRGLSYYYTRTTEYNYWGQGTQVTVSS
Kd (RBD (aa319-541) (Wuhan) [7]): 0.047 nM
Bmax [8]: 21800
EC50 [8]: 0.8 nM
Kd (RBD_SARS-CoV (aa306-527)): 2.69 nM
koff (RBD_SARS-CoV (aa306-527)): 0.00101 s⁻¹
kon (RBD_SARS-CoV (aa306-527)): 376000 M⁻¹ s⁻¹
Kd (RBD (aa319-541) (Wuhan) [9]): 0.0469 nM
koff (RBD (aa319-541) (Wuhan) [9]): 3.5e-05 s⁻¹
kon (RBD (aa319-541) (Wuhan) [9]): 747000 M⁻¹ s⁻¹
binding result [10]: no binding (tested: 13 nM)
binding result [11]: no binding (tested: 13 nM)

B4: NRCoV2-MRed05 VHH-Fc (Fc fusion)
chain: EVQLVESGGGLVQPGGSLRLSCAASGFTLDYYAIGWFRQAPGKEREGVSCISSSDGSTLYADSVKGRFTISRDNAKNTVYLQMNSLKPEDTAVYYCATGPQAYYSGSYYFQCPQAGMDYWGKGTQVTVSS
Kd (RBD (aa319-541) (Wuhan) [7]): 0.91 nM
Bmax [8]: 17300
EC50 [8]: 0.5 nM
binding result (RBD_SARS-CoV (aa306-527)): no binding
Kd (RBD (aa319-541) (Wuhan) [9]): 0.905 nM
koff (RBD (aa319-541) (Wuhan) [9]): 0.000509 s⁻¹
kon (RBD (aa319-541) (Wuhan) [9]): 562000 M⁻¹ s⁻¹
binding result (SARS-CoV spike (S)): no binding (tested: 13 nM)
binding result [10]: no binding (tested: 13 nM)
binding result [11]: no binding (tested: 13 nM)
